The results in this text go back to article PMC5906591.

The target in this test is HigA2Ab-His antitoxin (C-terminal His-tag fusion, from pET-HigBA-His) (Acinetobacter baumannii). The test is described as follows: SEC. For orientation: In gel filtration, larger molecules generally elute earlier.

“HigB2Ab toxin, untagged (co-expressed from pET-HigBA-His or pET-HigB-His6-TEV-HigA)” yielded a stoichiometry N (toxin:antitoxin) of 1.
